Laboratory results: US20200024330A1

Columns and labels:
[1] = target: aMLV envelope protein on pseudotyped virus (negative control) (aMLV); experiment: cell-based or functional assay
[2] = target: Endo H treated JR-FL gp120 (HIV-1 (isolate JR-FL)); experiment: ELISA on coated gp120; EC50 by nonlinear regression
[3] = target: JR-FL gp120 ΔV3 (HIV-1 (isolate JR-FL)); experiment: as above
[4] = target: HIV-1 JR-CSF Env R304A (HIV-1 JR-CSF) (UniProt P20871); experiment: cell-based or functional assay
[5] = target: HIV-1 APV17 envelope glycoprotein (Env) (HIV-1); experiment: cell-based or functional assay
[6] = target: HIV-1 JR-CSF Env N262A (HIV-1 JR-CSF) (UniProt P20871); experiment: cell-based or functional assay
[7] = target: HIV-1 JR-CSF Env L416A (HIV-1 (isolate JR-CSF)) (UniProt P20871); experiment: cell-based or functional assay
[8] = target: HIV-1 JR-CSF Env I423A (HIV-1 (isolate JR-CSF)) (UniProt P20871); experiment: cell-based or functional assay
[9] = target: HIV-1 JR-CSF Env T320A (HIV-1 isolate JR-CSF) (UniProt P20871); experiment: cell-based or functional assay
[10] = target: HIV-1 JR-CSF Env S393A (HIV-1 (isolate JR-CSF)) (UniProt P20871); experiment: cell-based or functional assay
[11] = target: HIV-1 JR-CSF Env Q422A (HIV-1 (isolate JR-CSF)) (UniProt P20871); experiment: cell-based or functional assay
[12] = target: HIV-1 JR-CSF Env I424A (HIV-1 (isolate JR-CSF)) (UniProt P20871); experiment: cell-based or functional assay
[13] = target: HIV-1 JR-CSF Env I326A (HIV-1 isolate JR-CSF) (UniProt P20871); experiment: cell-based or functional assay
[14] = target: HIV-1 Env of isolate APV6 (clade B) (HIV-1); experiment: cell-based or functional assay
[15] = target: HIV-1 Env of isolate APV13 (clade B) (HIV-1); experiment: cell-based or functional assay
[16] = target: HIV-1 Env of isolate JRFL (clade B) (HIV-1); experiment: cell-based or functional assay
[17] = target: HIV-1 APV6 Env (pseudovirus) (HIV-1); experiment: cell-based or functional assay
[18] = target: HIV-1 envelope glycoprotein (Env) of isolate 93TH305, on pseudovirus (HIV-1); experiment: cell-based or functional assay
[19] = target: HIV-1 envelope glycoprotein (Env) of isolate MGRM-Chronic-B-017, on pseudovirus (HIV-1); experiment: cell-based or functional assay
[20] = target: HIV-1 92UG024 Env (clade D pseudovirus) (HIV-1); experiment: cell-based or functional assay
[21] = target: HIV-1 92UG005 Env (clade D pseudovirus) (HIV-1); experiment: cell-based or functional assay
[22] = target: HIV-1 APV17 Env (clade B pseudovirus) (HIV-1); experiment: cell-based or functional assay
[23] = target: HIV-1 MGRM-C-028 Env (pseudovirus) (HIV-1); experiment: cell-based or functional assay
[24] = target: HIV-1 92TH021 Env (pseudovirus) (HIV-1); experiment: cell-based or functional assay
[25] = target: HIV-1 92UG005 Env (pseudovirus) (HIV-1); experiment: cell-based or functional assay
[26] = target: HIV-1 Env of isolate MGRM-F1-017 (clade F), on pseudovirus (HIV-1); experiment: cell-based or functional assay
[27] = target: HIV-1 envelope glycoprotein (Env) of isolate MGRM-Chronic-B-001, on pseudovirus (HIV-1); experiment: cell-based or functional assay
[28] = target: HIV-1 Env of isolate MGRM-F1-023 (clade F), on pseudovirus (HIV-1); experiment: cell-based or functional assay
[29] = target: HIV-1 Env of isolate MGRM-F1-021 (clade F), on pseudovirus (HIV-1); experiment: cell-based or functional assay
[30] = target: HIV-1 envelope glycoprotein (Env) of isolate JRFL, on pseudovirus (HIV-1); experiment: cell-based or functional assay
[31] = target: HIV-1 Env of isolate CAAN (HIV-1); experiment: cell-based or functional assay
[32] = target: HIV-1 Env of isolate 6535.3 (HIV-1); experiment: cell-based or functional assay
[33] = target: HIV-1 Env of isolate 93WR029 (pseudovirus) (HIV-1); experiment: cell-based or functional assay
[34] = target: HIV-1 Env of isolate MGRM-D-008 (subtype D), on pseudovirus (HIV-1); experiment: cell-based or functional assay
[35] = target: HIV-1 Env of isolate 92UG037 (pseudovirus) (HIV-1); experiment: cell-based or functional assay
[36] = target: HIV-1 Env of isolate APV_6 (HIV-1); experiment: cell-based or functional assay
[37] = target: HIV-1 Env of isolate MG RM-A-009 (pseudovirus) (HIV-1); experiment: cell-based or functional assay
[38] = target: HIV-1 Env of isolate MG RM-A-007 (pseudovirus) (HIV-1); experiment: cell-based or functional assay

Substance: 1495_C14 (PGC14) (antibody)
- IC50, pseudovirus neutralization, 1 hour Virus/Ab Incubation [1]: > 50 µg/mL
- IC50, pseudovirus neutralization, 18 hour Virus/Ab Incubation [1]: > 50 µg/mL

Substance: PGT-121 (antibody)
- EC50 [2]: > 10 µg/mL
- EC50 [3]: > 10 µg/mL
- Fold IC50 increase relative to wild-type [4]: 1.7 fold
- IC50 neutralization [5]: 0.095 µg/mL
- Fold IC50 increase relative to wild-type [6]: 1.1 fold
- Fold IC50 increase relative to wild-type [7]: 0.6 fold
- Fold IC50 increase relative to wild-type [8]: 3.3 fold
- Fold IC50 increase relative to wild-type [9]: 1.2 fold
- Fold IC50 increase relative to wild-type [10]: 0.6 fold
- Fold IC50 increase relative to wild-type [11]: 1.2 fold
- Fold IC50 increase relative to wild-type [12]: 0.9 fold
- Fold IC50 increase relative to wild-type [13]: 0.7 fold

Substance: 5147_N06 (PGT-130) (antibody)
- neutralization IC50 [14]: > 10 µg/mL
- neutralization IC80 [14]: > 10 µg/mL
- neutralization IC90 [14]: > 10 µg/mL
- neutralization IC95 [14]: > 10 µg/mL
- neutralization IC50 [15]: 0.0345 µg/mL
- neutralization IC80 [15]: 0.573 µg/mL
- neutralization IC90 [15]: 2.88 µg/mL
- neutralization IC95 [15]: > 10 µg/mL
- neutralization IC50 [16]: 0.0346 µg/mL
- neutralization IC80 [16]: 0.751 µg/mL
- neutralization IC90 [16]: 5.72 µg/mL
- neutralization IC95 [16]: > 10 µg/mL

Substance: 4838_L06 (PGT-121) (antibody)
- neutralization IC80 [17]: 0.145 µg/mL
- neutralization IC95 [17]: 0.569 µg/mL

Substance: 1496_C09 (PG9) (TCN-109) (antibody)
- IC50, pseudovirus neutralization [18]: 8.12 µg/mL
- IC50, pseudovirus neutralization [19]: 0.688 µg/mL

Substance: 4877_D15 (PGT-122) (antibody)
- Neutralization by PGT-122, IC50 [20]: > 10 µg/mL
- Neutralization by PGT-122, IC80 [20]: > 10 µg/mL
- Neutralization by PGT-122, IC90 [20]: > 10 µg/mL
- Neutralization by PGT-122, IC95 [20]: > 10 µg/mL
- Neutralization by PGT-122, IC50 [21]: > 10 µg/mL
- Neutralization by PGT-122, IC80 [21]: > 10 µg/mL
- Neutralization by PGT-122, IC90 [21]: > 10 µg/mL
- Neutralization by PGT-122, IC95 [21]: > 10 µg/mL
- Neutralization by PGT-122, IC50 [22]: 0.522 µg/mL
- Neutralization by PGT-122, IC80 [22]: 1.76 µg/mL
- Neutralization by PGT-122, IC90 [22]: 3.58 µg/mL
- Neutralization by PGT-122, IC95 [22]: 6.92 µg/mL

Substance: 5141_B17 (PGT-126) (antibody)
- IC50 [17]: 0.0249 µg/mL
- IC80 [17]: 0.0681 µg/mL
- IC90 [17]: 0.123 µg/mL
- IC95 [17]: 0.213 µg/mL
- IC50 [23]: 0.283 µg/mL
- IC80 [23]: 2.62 µg/mL
- IC90 [23]: > 10 µg/mL
- IC95 [23]: > 10 µg/mL
- IC50 [24]: 0.115 µg/mL
- IC80 [24]: 1.62 µg/mL
- IC90 [24]: 6.91 µg/mL
- IC95 [24]: > 10 µg/mL
- IC50 [25]: 0.0181 µg/mL
- IC80 [25]: 0.145 µg/mL
- IC90 [25]: 0.553 µg/mL
- IC95 [25]: 2.45 µg/mL

Substance: PGT-122 (antibody)
- Fold IC50 increase relative to wild-type [4]: 0.7 fold
- IC50 neutralization [5]: 0.522 µg/mL
- Fold IC50 increase relative to wild-type [6]: 1.1 fold
- Fold IC50 increase relative to wild-type [7]: 1 fold
- Fold IC50 increase relative to wild-type [9]: 0.7 fold
- Fold IC50 increase relative to wild-type [10]: 0.5 fold
- Fold IC50 increase relative to wild-type [11]: 1.1 fold
- Fold IC50 increase relative to wild-type [12]: 0.8 fold
- Fold IC50 increase relative to wild-type [13]: 0.6 fold

Substance: PGV04 (antibody)
- IC50 (µg/mL), single-round pseudovirus neutralization [26]: 2.38 µg/mL
- IC50, pseudovirus neutralization [27]: 0.048 µg/mL
- IC50 (µg/mL), single-round pseudovirus neutralization [28]: 0.171 µg/mL
- IC50 (µg/mL), single-round pseudovirus neutralization [29]: 0.031 µg/mL
- IC50, pseudovirus neutralization [18]: 0.255 µg/mL
- IC50, pseudovirus neutralization [30]: 0.032 µg/mL
- IC50, pseudovirus neutralization [19]: 0.129 µg/mL

Substance: 1443_C16 (PG16) (TCN-116) (antibody)
- IC50, pseudovirus neutralization, 1 hour Virus/Ab Incubation [1]: > 50 µg/mL
- IC50, pseudovirus neutralization, 18 hour Virus/Ab Incubation [1]: > 50 µg/mL
- IC50, pseudovirus neutralization (TZM-bl) [31]: 6.37 µg/mL

Substance: VRC01 (antibody)
- IC50 [32]: 1.75 µg/mL
- IC50 (µg/mL), pseudovirus neutralization [33]: 1.57 µg/mL
- IC50, pseudovirus neutralization [34]: 0.854 µg/mL
- IC50 (µg/mL), pseudovirus neutralization [35]: 0.245 µg/mL
- IC50 [36]: 1.81 µg/mL
- IC50 (µg/mL), pseudovirus neutralization [37]: 0.118 µg/mL
- IC50 (µg/mL), pseudovirus neutralization [38]: 12.6 µg/mL
